# According to US20180164324A1 (INSERM INSTITUT NATIONAL DE LA SANT ET DE LA RECHERCHE M …, published 2018):
# Where a chain is given by its changes, count along the chain named. In names and notes the source's numbering stands.
# B1: GFP10-RhoB Q63L (constitutively active, dominant positive variant) (other)
# chain: MGDLPDDHYLSTQTILSKDLNIDGGGGSGGGGSSGAAIRKKLVVVGDGACGKTCLLIVFSKDEFPEVYVPTVFENYVADIEVDGKQVELALWDTAGLEDYDRLRPLSYPDTDVILMCFSVDSPDSLENIPEKWVPEVKHFCPNVPIILVANKKDLRSDEHVRTELARMKQEPVRTDDGRAMAVRIQAYDYLECSAKTKEGVREVFETATRAALQKRYGSQNGCINCCKVL
# notes: also called GFP10-Rho active mutant (Q63L)
# B2: GFP10-RhoB T19N (dominant negative variant) (other)
# chain: B1 chain with T53N, L97Q
# B3: Myc-VHH anti-GFP nanobody (VHH)
# VHH: QVQLVESGGALVQPGGSLRLSCAASGFPVNRYSMRWYRQAPGKEREWVAGMSSAGDRSSYEDSVKGRFTISRDDARNTVYLQMNSLKPEDTAVYYCNVNVGFEYWGQGTQVTVSS
# Tests used:
# [1] = molecular target: Ras binding domain of c-Raf (RsBD)-GFP11; test: tripartite split-GFP complementation in GFP1-9 cells, flow cytometry
# [2] = molecular target: GFP10-RhoB (wild-type RhoB fused to GFP10); test: cell-based or functional assay
# [3] = molecular target: T1, Rho-binding domain of Rhotekin (RBD)-GFP11; test: tripartite split-GFP complementation in GFP1-9 cells, flow cytometry
# T1 construct: also called RBD-11
# T1 chain: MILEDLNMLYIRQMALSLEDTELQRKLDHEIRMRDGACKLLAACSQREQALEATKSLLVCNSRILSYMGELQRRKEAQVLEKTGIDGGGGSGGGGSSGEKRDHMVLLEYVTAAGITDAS
# [4] = molecular target: T1, Rho-binding domain of Rhotekin …; test: tripartite split-GFP complementation in GFP1-9 cells, fluorescence microscopy
# [5] = molecular target: reconstituted split-GFP (positive cells: 10-R-11, 10-Zipper-11, 10-zipper/zipper-11 with GFP1-9); test: cell-based or functional assay
molecule,measurement,setting,value
"GFP10-H-Ras G12V (dominant positive, GTP-bound variant)",induction ratio of split-GFP fluorescence against GDP-bound (S17N) H-Ras,[1],3 fold
cell-permeant recombinant TAT-C3 exoenzyme (from UniProt P15879 41-251),inhibition of RhoB activation (split-GFP fluorescence),[2],> 10 µg/mL
B1,fold induction of split-GFP fluorescence against the inactive variant (T19N),[3],5 fold
B2,binding result,[4],no binding
B3,mean fluorescence intensity of the positive cells,[5],4 fold
